The values that follow come from patent US20240076392A1 (IGM BIOSCIENCES, published 2024).

Some results are limits rather than exact numbers.

Assay [1] deals with T1, recombinant human CD123 protein (CD123, Fc-Fusion (IgG1) Avi-Tag, Biotin-Labeled, BPS Bioscience Cat.100068-2) (human, UniProt P26951 19-305, limits assumed, biotin-labeled (Avi-Tag)).
T1 construct: Bought protein; not shown: IgG1 Fc; Avi-Tag
T1 sequence (looked up): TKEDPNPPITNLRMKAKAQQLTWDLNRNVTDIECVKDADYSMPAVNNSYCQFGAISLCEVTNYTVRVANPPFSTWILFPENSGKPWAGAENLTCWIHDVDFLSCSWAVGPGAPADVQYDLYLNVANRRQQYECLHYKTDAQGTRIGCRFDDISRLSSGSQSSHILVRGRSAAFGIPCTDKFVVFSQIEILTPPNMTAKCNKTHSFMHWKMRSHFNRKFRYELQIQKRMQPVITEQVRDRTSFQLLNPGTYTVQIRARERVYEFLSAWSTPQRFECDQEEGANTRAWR
The assay is described as follows: BLI (Octet), CD123-Fc on anti-human Fc sensors, IgM in solution.

The target of a further assay is T2, Human CD123.
T2 construct: It is a different reagent from m11 (Acro, His) and m13 (BPS, Fc); also called recombinant human CD123 protein (Sino Biological 10518-H08H-50); not shown: The tag of the vendor's product
T2 chain: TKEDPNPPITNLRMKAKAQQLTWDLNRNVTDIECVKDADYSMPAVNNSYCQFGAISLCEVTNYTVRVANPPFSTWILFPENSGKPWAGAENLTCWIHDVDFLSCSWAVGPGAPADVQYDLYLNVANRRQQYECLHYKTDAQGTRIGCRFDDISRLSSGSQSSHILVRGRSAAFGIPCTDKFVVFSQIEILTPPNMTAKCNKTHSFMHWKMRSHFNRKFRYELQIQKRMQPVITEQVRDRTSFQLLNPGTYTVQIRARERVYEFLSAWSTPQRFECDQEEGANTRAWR
The assay is described as follows: ELISA, plate coated with 0.2 ug/mL recombinant human CD123 (Sino Biological), detection with HRP anti-human kappa, chemiluminescence. As for the experimental part:
96-well white polystyrene ELISA plates (Pierce 15042) were coated with 100 μL per well of 0.2 μg/mL recombinant human CD123 protein (Sino Biological 10518-H08H-50) or 0.5 μg/ml recombinant human CD3ε protein (Acro Biosystems, CDE-H5256-100) overnight at 4° C. Plates were then washed 5 times with 0.05% PBS-Tween and blocked with 2% BSA-PBS. After blocking, 100 μL of serial dilutions of CD123×CD3 IgM antibodies, standards, and controls were added to the wells and incubated at room temperature for 2 hours. The plates were then washed 10 times and incubated with HRP conjugated mouse anti-human kappa (Southern Biotech, 9230-05. 1:6000 diluted in 2% BSA-PBS) for 30 min. After 10 final washes using 0.05% PBS-Tween, the plates were read out using SuperSignal chemiluminescent substrate (ThermoFisher, 37070). Luminescent data were collected on an EnVision plate reader (Perkin-Elmer) and analyzed with GraphPad Prism using a 4-parameter logistic model.
A general note: In an ELISA, binding on a coated surface is turned into a signal by an enzyme label.

The target in assay [2] is T3, recombinant human CD123 protein (CD123)-His Acrobio #ILA-H52H6 (human, UniProt P26951 19-305).
T3 construct: Bought protein; also called hu IL-3R alpha (CD123)-His; not shown: His tag
T3 sequence (looked up): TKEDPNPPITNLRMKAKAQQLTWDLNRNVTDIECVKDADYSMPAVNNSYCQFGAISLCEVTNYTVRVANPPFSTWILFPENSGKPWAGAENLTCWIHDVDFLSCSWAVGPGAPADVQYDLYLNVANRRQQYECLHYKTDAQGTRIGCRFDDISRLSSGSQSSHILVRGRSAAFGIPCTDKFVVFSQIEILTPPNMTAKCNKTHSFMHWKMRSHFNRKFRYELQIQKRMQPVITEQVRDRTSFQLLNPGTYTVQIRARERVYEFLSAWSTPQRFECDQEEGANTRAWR
The experiment in a line: BLI (Octet), CD123-His on anti-penta-His sensors, IgG in solution, 1:1 global fit. The protocol:
PBST (1×PBS+1% BSA+0.05% Tween-20) buffer was used as Antibody/CD123 dilution and sensor hydration buffer. The experiment followed a five-step sequential assay at 24° C. First, biosensors were hydrated for 10 minutes. Samples and buffer were applied in 384-well plate. After initial baseline for 60 s, sensors were loaded with 7 nM hu IL-3R alpha (CD123)-His Acrobio #ILA-H52H6. The biosensors were dipped into PBST for 20 s to reach baseline, then incubated for 420 s with 2-fold serial diluted anti-CD123 antibodies starting at 10 nM for association, followed by 900 s in PBST for dissociation. Results were analyzed by ForteBio Data Analysis software 9.0 using 1:1 global fit model.
For orientation: In BLI a coated tip is dipped into the sample, and binding shifts an interference pattern.

B1: 32716 IgM (CD123xCD3 IgM antibody) (bispecific antibody)
VH: QIQLVQSGPELKKPGETVKISCKASGYIFTNYGMNWVKQAPGKSFKWMGWINTYTGESTYSADFKGRFAFSLETSASTAYLHINDLKNEDTATYFCARSGGYDPMDYWGQGTSVTVSS
VL: DIVLTQSPASLAVSLGQRATISCRASESVDNYGNTFMHWYQQKPGQPPKLLIYRASNLESGIPARFSGSGSRTDFTLTINPVEADDVATYYCQQSNEDPPTFGAGTKLELK
J-chain: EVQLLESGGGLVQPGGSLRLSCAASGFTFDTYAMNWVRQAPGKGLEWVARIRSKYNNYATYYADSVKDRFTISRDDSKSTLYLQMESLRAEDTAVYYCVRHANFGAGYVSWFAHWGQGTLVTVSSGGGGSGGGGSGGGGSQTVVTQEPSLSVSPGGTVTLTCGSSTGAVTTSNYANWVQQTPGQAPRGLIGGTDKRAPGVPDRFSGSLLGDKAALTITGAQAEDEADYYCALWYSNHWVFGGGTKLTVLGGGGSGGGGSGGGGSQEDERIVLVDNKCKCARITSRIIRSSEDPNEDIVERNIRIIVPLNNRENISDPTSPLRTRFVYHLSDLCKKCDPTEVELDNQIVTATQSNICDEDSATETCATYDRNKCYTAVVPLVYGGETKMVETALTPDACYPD
notes: Pentameric IgM with J-chain; also called original mouse antibody
Take B1: in assay [1], the Kd is less than 1 pM, the koff is less than 1e-07 s⁻¹ and the kon turned out to be 4.1e+06 M⁻¹ s⁻¹. For the same molecule, the “EC50 (read off the curve)” value in the assay with Human CD123 was approximately 0.03 nM.

B2: 32716 IgG (antibody, V domains shown)
VH: QIQLVQSGPELKKPGETVKISCKASGYIFTNYGMNWVKQAPGKSFKWMGWINTYTGESTYSADFKGRFAFSLETSASTAYLHINDLKNEDTATYFCARSGGYDPMDYWGQGTSVTVSS
VL: DIVLTQSPASLAVSLGQRATISCRASESVDNYGNTFMHWYQQKPGQPPKLLIYRASNLESGIPARFSGSGSRTDFTLTINPVEADDVATYYCQQSNEDPPTFGAGTKLELK
notes: Parental mouse variable domains cloned into human IgG format; detected with anti-human kappa; also called original mouse antibody
In the case of B2, in assay [2], the Kd is 0.44 nM, the koff stood at 0.0003 s⁻¹ and the kon came out at 710000 M⁻¹ s⁻¹.

B3: h32716-4-2 IgM (CD123xCD3 IgM antibody) (bispecific antibody)
VH: QVQLVQSGPELKKPGASVKVSCKASGYIFTNYGMNWVRQAPGQGLEWMGWINTYTGESTYSADFKGRFVFSLDTSVSTAYLQISSLKAEDTAVYYCARSGGYDPMDYWGQGTLVTVSS
VL: DIQMTQSPSSLSASVGDRVTITCRASESVDNYGNTFMHWYQQKPGKAPKLLIYRASNLESGVPSRFSGSGSGTDFTFTISSLQPEDIATYYCQQSNEDPPTFGQGTKVEIK
chain: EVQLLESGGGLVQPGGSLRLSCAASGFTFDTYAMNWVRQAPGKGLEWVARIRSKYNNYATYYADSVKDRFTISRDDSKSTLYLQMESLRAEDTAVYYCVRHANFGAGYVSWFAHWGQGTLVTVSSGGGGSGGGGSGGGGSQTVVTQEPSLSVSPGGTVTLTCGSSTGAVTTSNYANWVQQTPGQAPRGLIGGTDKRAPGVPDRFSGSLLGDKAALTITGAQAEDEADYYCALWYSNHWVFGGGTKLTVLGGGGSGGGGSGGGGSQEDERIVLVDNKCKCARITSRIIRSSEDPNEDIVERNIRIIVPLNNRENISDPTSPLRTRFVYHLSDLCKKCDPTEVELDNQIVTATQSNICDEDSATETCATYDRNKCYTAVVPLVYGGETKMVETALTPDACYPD
notes: Pentameric IgM with modified J-chain
As for B3, in assay [1], the Kd stood at 4.43 pM, the koff was determined as 1.69e-05 s⁻¹ and the on-rate constant (kon) is 3.82e+06 M⁻¹ s⁻¹. For the same molecule, the “EC50 (read off the curve)” value with Human CD123 is approximately 0.08 nM.

B4: h32716-5-2 IgG (antibody, V domains shown)
VH: QVQLVQSGPELKKPGASVKVSCKASGYIFTNYGMNWVKQAPGQGLEWMGWINTYTGESTYSADFKGRFVFSLDTSVSTAYLQISSLKAEDTAVYYCARSGGYDPMDYWGQGTLVTVSS
VL: DIQMTQSPSSLSASVGDRVTITCRASESVDNYGNTFMHWYQQKPGKAPKLLIYRASNLESGVPSRFSGSGSGTDFTFTISSLQPEDIATYYCQQSNEDPPTFGQGTKVEIK
notes: Human IgG format
Turning to B4, in assay [2], the Kd worked out at 0.71 nM, the koff stood at 0.00045 s⁻¹ and the kon is 700000 M⁻¹ s⁻¹.

B5: h32716-6-2 IgG (antibody, V domains shown)
VH: QVQLVQSGPELKKPGASVKVSCKASGYIFTNYGMNWVKQAPGQGFKWMGWINTYTGESTYSADFKGRFVFSLDTSVSTAYLQISSLKAEDTAVYYCARSGGYDPMDYWGQGTLVTVSS
VL: DIQMTQSPSSLSASVGDRVTITCRASESVDNYGNTFMHWYQQKPGKAPKLLIYRASNLESGVPSRFSGSGSGTDFTFTISSLQPEDIATYYCQQSNEDPPTFGQGTKVEIK
notes: Human IgG format
Take B5: in assay [2], the Kd worked out at 0.33 nM and the koff was 0.0002 s⁻¹.

B6: h32716-4-2 IgG (antibody, V domains shown)
VH: QVQLVQSGPELKKPGASVKVSCKASGYIFTNYGMNWVRQAPGQGLEWMGWINTYTGESTYSADFKGRFVFSLDTSVSTAYLQISSLKAEDTAVYYCARSGGYDPMDYWGQGTLVTVSS
VL: DIQMTQSPSSLSASVGDRVTITCRASESVDNYGNTFMHWYQQKPGKAPKLLIYRASNLESGVPSRFSGSGSGTDFTFTISSLQPEDIATYYCQQSNEDPPTFGQGTKVEIK
notes: Human IgG format
B6: in assay [2], the Kd is 0.6 nM, the koff is 0.00046 s⁻¹ and the kon came to 770000 M⁻¹ s⁻¹.

B7: h32716-1-1 IgM (CD123xCD3 IgM antibody) (bispecific antibody)
VH: QVQLVQSGAEVKKPGSSVKVSCKASGYIFTNYGMNWVRQAPGQGLEWMGWINTYTGESTYSADFKGRVTITADESTSTAYMELSSLRSEDTAVYYCARSGGYDPMDYWGQGTLVTVSS
VL: DIVMTQSPDSLAVSLGERATINCRASESVDNYGNTFMHWYQQKPGQPPKLLIYRASNLESGVPDRFSGSGSGTDFTLTISSLQAEDVAVYYCQQSNEDPPTFGQGTRLEIK
chain: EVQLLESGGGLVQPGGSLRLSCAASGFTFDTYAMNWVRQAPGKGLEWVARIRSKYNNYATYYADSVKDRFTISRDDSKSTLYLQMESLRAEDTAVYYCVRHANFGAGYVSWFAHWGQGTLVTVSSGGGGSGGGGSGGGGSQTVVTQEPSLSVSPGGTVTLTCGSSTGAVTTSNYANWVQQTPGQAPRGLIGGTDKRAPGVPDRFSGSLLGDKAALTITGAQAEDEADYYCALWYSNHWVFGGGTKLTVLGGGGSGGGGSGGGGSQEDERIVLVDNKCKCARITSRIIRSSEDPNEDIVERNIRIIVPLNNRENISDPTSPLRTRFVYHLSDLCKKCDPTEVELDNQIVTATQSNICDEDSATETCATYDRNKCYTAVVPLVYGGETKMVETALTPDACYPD
notes: as for B3
Turning to B7, in assay [1], the Kd is less than 1 pM, the koff was less than 1e-07 s⁻¹ and the kon stood at 3.9e+06 M⁻¹ s⁻¹. The “EC50 (read off the curve)” value with Human CD123 lay in the range of 0.1 to 0.2 nM.

B8: h32716-2-1 IgG (antibody, V domains shown)
VH: QVQLVQSGAEVKKPGSSVKVSCKASGYIFTNYGMNWVKQAPGQGLEWMGWINTYTGESTYSADFKGRFTFTLDESTSTAYMELSSLRSEDTAVYYCARSGGYDPMDYWGQGTLVTVSS
VL: DIVMTQSPDSLAVSLGERATINCRASESVDNYGNTFMHWYQQKPGQPPKLLIYRASNLESGVPDRFSGSGSGTDFTLTISSLQAEDVAVYYCQQSNEDPPTFGQGTRLEIK
notes: Human IgG format
As to B8, in assay [2], the Kd stood at 0.45 nM, the koff came out at 0.00049 s⁻¹ and the kon amounted to 1.1e+06 M⁻¹ s⁻¹.

B9: h32716-1-1 IgG (antibody, V domains shown)
VH: QVQLVQSGAEVKKPGSSVKVSCKASGYIFTNYGMNWVRQAPGQGLEWMGWINTYTGESTYSADFKGRVTITADESTSTAYMELSSLRSEDTAVYYCARSGGYDPMDYWGQGTLVTVSS
VL: DIVMTQSPDSLAVSLGERATINCRASESVDNYGNTFMHWYQQKPGQPPKLLIYRASNLESGVPDRFSGSGSGTDFTLTISSLQAEDVAVYYCQQSNEDPPTFGQGTRLEIK
notes: Human IgG format
As to B9, in assay [2], the Kd came out at 0.36 nM, the koff is 0.0004 s⁻¹ and the kon was 940000 M⁻¹ s⁻¹.

B10: h32716-3-1 IgG (antibody, V domains shown)
VH: QVQLVQSGAEVKKPGSSVKVSCKASGYIFTNYGMNWVKQAPGQGFKWMGWINTYTGESTYSADFKGRFTFTLDESTSTAYMELSSLRSEDTAVYYCARSGGYDPMDYWGQGTLVTVSS
VL: DIVMTQSPDSLAVSLGERATINCRASESVDNYGNTFMHWYQQKPGQPPKLLIYRASNLESGVPDRFSGSGSGTDFTLTISSLQAEDVAVYYCQQSNEDPPTFGQGTRLEIK
notes: Human IgG format
As for B10, in assay [2], the Kd worked out at 0.25 nM, the koff worked out at 0.00031 s⁻¹ and the kon worked out at 1.2e+06 M⁻¹ s⁻¹.

The Kd is a measure of binding affinity in units of concentration. Usually koff stands for the first-order rate constant of dissociation. For orientation: kon means a measure of how fast the partners come together. The EC50 (read off the curve) is the concentration needed to bring the measured effect to its halfway point.
